# A protein production outcome set (Wang et al. 2014)
# Test: label from the status in PepcDB records
row,Sequence,protein production
1,MSSRNTLGNDEPMNQEKEGVESKDTPRTETKGVEKKHSVLVKQDWLPSDYAQYVDEKILNIGFEPDTFQRQAFYLLSRASSVFVSAHTSSGKTLVAEYAISLSQIHGTRTIYTSPIKALSNQKYHDFKQKYDDVGIITGDVQVNPAAKCLVMTTEILRNLVYRNGDLLRDTEFVVFDEVHYINDSERGVVWEECIIMIPRHINFIMLSATIPNSLEFSEWVGRTKDKTIYVISTSKRAVPLEHVIYCDWCVYSIDDGGGKRNASNFKGDLVPFSKKTRPTGKFKILDVANFVVKKKLTPAIFFCFSKRKCEDYAEILRTLNLNDTKSREEVKLFLSEATRCLSPEDRNLPQVLSMSSMVLNGVAVHHGSLLPFVKECVELLFSMNLVKLLIATETFAMGVNMPAKCCVFLSLSKIDGGVFRYISSGEYIQMSGRAGRRGMDAVGTVMIADPKMPSLSTIQGIIHGTPFSLSSQFRLSFGLILISLRSNIRVEDLMRRSYGEHRSQRNYERDMKKLSELESVEEDVCNVCGDLSKYIGAVEEICARNWKLIAKHHVLKEGSRVLLKNNAVGTVERVSGATVFLKQKDEALDNGTPIPTKFLAYPLGTRKPLDRSKVTFENIFCVLDGEKALWNYETANVMDVLEIRKIKSLYDYLLSEQQVCREFDQHYSNALRVHCKRKEMNDIKIRYNVCSLGMIDEYNRRMEFLKKKGFVEEMITIKGRAAAEIHTVNEVLVVEMIFSNEFRQMDGRKIVSLMSSMIHEEADGQELGKALYDECKRMDECFRELSRDLDELMIPPFTPLNFSLVDAVYDWCNGSSLGKIVSRYNVLEGTFVRLVLRLEECCRELISVSTMIGDKSLEEKIGDASASMKRDIIFLPSLYL,failed
2,MGLGSSNRQTDDWNAKLYDERHRFVSAYGEDLIQWLAPKEGECVLDLGCGTGDLTEQIHQLGSRVIGVDVSESMIEQAKGKFPHLDFQVAEATDLSFSEKFDAIFSNAVLHWIKDAEEALTVIYRSLKPGGRFVAEFGGKGNVETIVNTLADTMSQADSRWSKEELPWFFPSIGQYTSLMEQVGFRVTHALHFNRPTLLEDGDGIRHWLAMFAESVLEGKSETERAEIVRFVEAEVKDALFDGTNWWADYKRIRVVGMKQL,failed
3,MPKAAWEPEYHRVFVDLCVEQKMLGNQPGTQHILKPFLQRTGARFTRNQLKNHWDTMIKQWKIWCRLVQCSDMQWDPQTNTFGANDQDWANYLHVNPEAGQYRLNPPSFLEKLELIFEDSNLDDEGTSGSKRKRIAKHRDEDNDNTGDEEDTQSASNFSSPQSKGYWSPSSHELFVDLLFQEALKGNRPDSHYPKETWKMILETINQNTGKSFTRPQLKNHWDCTRKSWKIWCQVIGAPVMKWDATSRTFGATDEDWKNYLKENHRAAPFRRKQLPHADKLATIFKGLIEPGKAYFRSYRRRVLDHHSESPQLHDPTPLSTLYTNEPVSGSEGGADEDDNDDDDEQPTPQHRRFNSVGFAESRLQDVEIVTPGCHRLKTELMKESPVSASVRQYEYTIGECIECLDSMEEVEQGSDLYLFALDLFVKKEYREIFLLLKNSSLRMSWLLRLRSGGLTIAA,failed
4,VQVGNCLQVMWLADRHSDPELYTAAKHCAKTHLAQLQNTEEFLHLPHRLLTDIISDGVPCSQNPTEAIEAWINFNKEEREAFAESLRTSLKEIGENVH,not failed
5,MIKGNNGNRGSSSSGYSADLLVCFPSRTHLALTPKPICSPSRPSDSSTNRRPHHRRQLSKLSGGGGGGHGSPVLWAKQASSKNMGGDEIAEPTSPKVTCAGQIKVRPSKCGGRGKNWQSVMEEIERIHDNRSQSKFFGLKKDVMGFLTCLRNIKFDFRCFGDFRHADVTSDDDEEEDDDDDEEEEVVEGEEEENSKTVFSKWFMVLQEEQNNKDDDKNNNKCDEKRDLEDTETEPAVPPPNALLLMRCRSAPAKSWLEERMKVKTEQEKREEQKEEKETEDQETSMKTKKKDLRSLMEEEKMELVLMRYDTEFYRLSSDIAKETWVVGGIQDPLSRSRSWKN,failed
6,MVNRCFFFNRRICFMELFLLRHGKPDIRRSMAIRSVDMYSWIGEYDAAGILDSPDASTVAASEGKFIVSSPMPRALESVAALGLEPDIIIDELHEAPLPVFNIPLLKLTPLVWAALFRIFWMAGGSGGVETFSSVKIRAKLVSCELDKMAETHGSVLSVGHGFMNALVARELQKAGWKRQKVGPSGYWSGIKLVR,failed
7,MTCLFSDAPIPDHLYGAIVALGNFDGFHLGHQAVVAAAVARGHAEGRPVIVATFDPHPVRFFCPDLPPFALTTIPQRARLFEKAGADATFVIRFSEAMANLSPEEFIQQQIIDHLKAAGVVTGRDFTFGKGRKGGVDLLQAMGQNLNISVDTIMPVCDQQGAISSTRIREALKQGDPETAARLLSRP,failed
8,MKGENAMEHHTSVLSLMVVVAIAFFVPLLLQRFKLKALPVVVAEIIAGIFVGKSGFNIIEPDIWLQVLSTLGFIFLMFLSGLEIDFSIFKQKGKKNTTNEPNTFQAASIIFLFIFILSYALSLLFVWLGFVDNAMFMTLIISTISLGVVVPTLKENNLGKTAIGQIILLVAVIADLVTMILLAVFVGLNSESGQSMWLLLLLFGAGIVIYFVAKRFKNIPYLDSLKAGSVQIDTRAVFALILILVGLSESVGAENILGAFLAGVLVSLLSPNEDMVEKLDSIGYGFFIPIFFVMVGVNLEVWSIFKEPSSMLMIPILIVGLFISKLLPSLVLRKWYPRNIVLGSAILLTSTLSLVIAAAQIGEKLEIISPSLSVSLILSAVITCIFAPILFKKMFPKVETPKPKVAIIGASRITLPLSLDLKREDYDVTLYMMRQNKINDEEATSHDFPIVKLDDITIASLTEQTAFDADRVVVATSDDEQNLLLAEHAKELGVEHVIASVEDPLLQEKATQEHIAVFSTINSTRILLRALIDKPSLVRLITTANETVREVELRSNKYNGVALRRLPFLGDVLVIQIYRGNKALIPHGDTRLQHGDTLLVTGSKEHIDTLKNILE,failed
9,MSVRPVDAALEGLQTMRRRPLTALAWATFSLVMLPILGLLVKIGLGDEGRQVLAGRGSSADPRELLDLVMNLGGAMVLLVALALLLGAVLQAAIIRSVLEPTNDRFAYLRLGKEEIQLLIVSLITWATALLCTIIPSGVVVLGSSLLSGAAAAWFAFLGALSVIGFSLWVAVRLSLLGPHAFSHHHIDIRAAWIQTHGQFWRLLGMFVLTIAIWILVSLLGAAVAGVIGKWLTAAVNLGASGLAASNSWLILSLLANMLLAPVFLTLQTVILVAAPARAFAQLNQDEIDAGLHA,failed
10,MTPIQDHPLRFALANELHARPFPISRAPCTVAYLAVKQPDAAVGRDRKADRAHLIDLLDRHGAPHPQPGATHYAGQIGRHWLKWESHTEFVTYTAFATGVSDRPFNPADFEVFPPDWLAAAPGQRVTSALLRVEEQLPEADIVAALADWFVPESLAVAHVLDRAAVAAGDFRIDPAGHMRFAVFVAPDTGERRIGRIIQRLCEIETYKAMSMLGFARVKALGPKLGELDSGLTGLMVKMTDGGHPAEDLLPQLLSTSAELETMAARSEFRLGATGAYEAIVNQRIASLREERFGGRQTFADFMLRRYEPAMRTVKSTERRLKRLSDRAIRAGDLLRTRVDVERSAQNQALLESMDRRADLALRLQHTVEGLSVVAVSYYAVSLVSAFLLPLSEWYGVDKKALIALVTLPVVGLVWLGIRRIRKKLH,failed
11,MPDNEVDLLFAQLSPEDLIEWSDYLPESFTDRALAQMGERQRQRFELYDQYSENEIGRYTDHQMLVLSDKATVAQAQRFFRRIELDCNDNLFIVDEADKYLGTVRRYDIFKHEPHEPLISLLSEDSRALTANTTLLDAAEAIEHSREIELPVIDDAGELIGRVTLRAATALVREHYEAQLMATAGMDESDDLFAPILKGAQRRAV,not failed
12,MNAKRWVALGIVFALLIVSALAKFTSSQIASTEESSPTFVESLFADTGELTETVIEEGGDDTIAVLSVDGTIQDTGDSGSLFGDAGYDHSFFMQQLEQVRNDDYIQGVLLYVNSPGGGVMESAQIRDKILQIQKERNIPFYVSMGSMAASGGYYISAPADKIFASKETLTGSLGVIMQGYDYSELMKKLGVSDNTIKSGEYKDIMSGTRPMTEDEKKIMQSMIDDSYNEFVKVVAKGRGMSAEKVRKIADGRIYDGRQAKENGLIDEFGYQEDALEALKKEQGLADATVIQYDVPEDFSSLFSVAAQKISGQNADISQLIKLTGTLKAPRMMYLYGE,failed
13,MMMKIGDKLKGKITGIKPYGAFVQLENGSIGLIHISEIKTGYIDNIYQTLSVGQEVLVQVVDYDEYSQKASLSLRTLEEEKHHYQHRHRFSNNRLNIGFKPLEEHLPIWVEENLDYLKKDQDESDNQAKD,failed
